The record followed here is article PMC11117473 (2024).

Ends that are not written are not given here.

Common to all, as to assay: fluorescence polarization
For orientation: Polarisation of emitted light reports the rotation of a fluorescent probe.

Assay [1] concerns the target T1, NCOA1 NR2 peptide (Homo sapiens).
T1 chain: Fluorescein-LTARHKILHRLLQEGSPSD

The target of assay [2] is T2, NCOA1 NR2 peptide (Homo sapiens).
T2 chain: Fluorescein-LTARHKILHRLLQEGSPSD

Assay [3] concerns the target T3, NCOA1 NR2 peptide (Homo sapiens).
T3 chain: Fluorescein-LTARHKILHRLLQEGSPSD

B1: VDR LBD 156-453 (protein)
chain: LSDEQMQIINSLVEAHHKTYDDSYSDFVRFRPPVREGPVTRSASRAASLHSLSDASSDSFNHSPESVDTKLNFSNLLMMYQDSGSPDSSEEDQQSRLSMLPHLADLVSYSIQKVIGFAKMIPGFRDLTAEDQIALLKSSAIEIIMLRSNQSFSLEDMSWSCGGPDFKYCINDVTKAGHTLELLEPLVKFQVGLKKLKLHEEEHVLLMAICLLSPDRPGVQDHVRIEALQDRLCDVLQAYIRIQHPGGRLLYAKMIQKLADLRSLNEEHSKQYRSLSFQPEHSMQLTPLVLEVFGSEVS
The term Kd denotes a measure of binding affinity in units of concentration. Turning to B1, the Kd with NCOA1 NR2 peptide [1] amounted to 540 nM; with NCOA1 NR2 peptide [2] it was 480 nM; with NCOA1 NR2 peptide [3], 500 nM.
